We go through one molecule from patent US20210261643A1, “INHIBITORS OF P-TEFB MEDIATED TRANSCRIPTION” (The Regents of the University of California, priority 2018, published 2021).

One test relates to 7SK snRNA. In words: Binding to endogenous 7SK snRNA. The text has this: Finally, since HEXIM1 ARM resembles the TAR-binding domain from Tat, we investigated whether HT1 could bind to HIV TAR. m:HT1 or m:Tat was co-expressed in 293T cells with TAR RNA, expressed under RNA Polymerase III dependent H1 promoter, and immunoprecipitated using anti-Myc Ab or IgG as a control. TAR RNAs co-immunoprecipitated with HT1 or Tat were quantified by RT-qPCR analysis. […] To test whether HT1 affects Tat-TAR interactions, increasing amounts of m:HT1 were also co-expressed with a fixed amount of f:Tat and TAR. […] As expected, HT1 also bound to endogenous 7SK snRNA.

In test [1] the test system is HIV promoter (P-HIV) transactivation by Tat. Nature of the test: Luc assay with replication-defective HIV-1 molecular clone pNL43ΔenvLuc in 293T cells. Type of test: cell-based. The note with it: transient expression.
Test [2] concerns early steps of HIV infection (HIV-1 NL43ΔenvLuc). Nature of the test: Single-round infection with Env-pseudotyped replication-defective HIV, proviral DNA by qPCR. Type of test: cell-based. To be noted: C-HT, MO-HT, MT-HT cells. The source says: FIGS. 5A, 5B, 5C, and 5D. Stable expression of HT1 inhibits HIV replication. FIG. 5A. Stable expression of HT1 inhibits HIV-1 replication in C-HT cells. 1E+06 HT1-expressing CEM-HT cells and e control CEM cells were challenged by HIV-1 NL43 infection. FIG. 5B. Stable expression of HT1 inhibits HIV-1 replication in MO-HT cells. 1E+06 HT1-expressing MOLT4-HT cells, and control MOLT4 cells were challenged by HIV-1 NL43 infection. FIG. 5C. Stable expression of HT1 inhibits HIV-1 replication in MT-HT cells. 1E+06 HT1-expressing MT4-HT cells, and control MT4 cells were challenged by HIV-1 NL43 infection. In each of FIGS. 5A, 5B, and 5C, virus production was assessed by Gag p24 ELISA in supernatants when cells were passaged at days 0, 2 and 4, and plotted. Error bars represent standard deviation from triplicate experiments. FIG. 5D: Stable expression of HT1 doesn't inhibit early steps of HIV-1 infection in C-HT, MO-HT, and MT-HT cells. Single-round infection assays were performed in the same conditions as in FIG. 5A-C above, but using replication-defective HXB2 Env-pseudotyped HIV-1 NL43ΔenvLuc. The relative amount of HIV DNA integrated in the cells' genomic DNA was assessed after 24 h by qPCR. […]
(§1) On 2 dpi, virus production was detected from CEM, MOLT4 and MT4 cells and reached around 20 (CEM, MT4) to 110 (MOLT4) ng/mL p24 concentration in the supernatant on 4 dpi.
(Real-time PCR tracks product formation cycle by cycle.)

Test [3] relates to Tat-dependent gene expression from the HIV promoter. In words: Luciferase reporter assay, pLTR-Luc co-transfected with pTat and pHT in 293T cells. Type of test: cell-based. To be noted: 293T cells, pHT:pTat ratio 2:1. The text has this: FIGS. 2A, 2B, and 2C. A HEXIM1-Tat fusion peptide inhibits gene expression from the HIV promoter. FIG. 2A. Structure of the HEXIM1-Tat fusion peptides used in the study. The functional domains used from HEXIM1 and Tat include a HEXIM1 Arginine Rich Motif (ARM, black box, residues 150-162) that binds RNA, a HEXIM1 inhibitory domain (ID, light grey box, residues 200-211) that inhibits CDK9 through a PYNT motif, and Tat transactivation domain (AD, dark grey box, residues 1-48) that binds to P-TEFb. The conceptual schemes are not drawn to scale. FIG. 2B. Transient expression of HT1 inhibits Tat-induced LTR-driven Luc expression. Upper panel: a schema depicts the reporter assay. A luciferase reporter gene (Luc) is under the control of the HIV promoter (P-HIV) and can be activated by ectopically expressed Tat. The Luc assay was used to titrate the inhibitory effect of HT1-3 on P-HIV transactivation by Tat. Middle panel: increasing amounts of m:HT1, m:HT2 or m:HT3 expressing plasmid (pHT) were co-transfected in 293T cells with a plasmid (pTat) expressing f:Tat and another (pLTR-Luc) expressing Luc under the control of the HIV promoter. Luc activity was plotted as % activity relative to control (empty vector used instead of pHT), depending on the transfected pHT:pTat ratio. Error bars in the graph represent standard deviation from triplicate experiments. FIG. 2C. Transient expression of HT1 inhibits Luc expression from HIV-1 NL43ΔenvLuc. Top schema depicts the reporter assay. A luciferase reporter gene (Luc) is inserted in a replication-defective HIV-1 molecular clone (pNL43ΔenvLuc) in which Luc and Tat are under the control of the HIV promoter (P-HIV). A Luc assay was used to titrate the inhibitory effect of HT1-3 on P-HIV transactivation by Tat. Bottom: increasing amounts of pHT1 were co-transfected in 293T cells with pNL43ΔenvLuc. Luc activity was plotted as % activity relative to control (empty vector used instead of pHT), depending on the transfected amounts of pHT1. Error bars in the graph represent standard deviation from triplicate experiments.
Luciferase (Luc) reporter assays were performed to titrate the potency of each chimera to inhibit Tat-dependent gene expression from the HIV promoter. Effector plasmids included pHT1-3 and pTat, which respectively expressed a Myc-epitope tag chimera (m:HT1-3) and a Flag-epitope tagged Tat (f:Tat). pHT1, pHT2 or pHT3 was transiently co-transfected in 293T cells with pTat and a Luc reporter gene under the control of the HIV promoter (P-HIV, expressed from the plasmid pLTR-Luc). […] Finally, HT1 lead to a 4-fold decrease in Luc expression at a 2:1 ratio. […] Similar results were obtained when co-transfecting pHT1-3 and pTat in NIH1 cells, which stably carry an LTR-Luc reporter gene. Thus, we selected HT1 for further investigation.
(A reporter such as luciferase makes a cellular process visible.)

The next test deals with HIV-1 NL43. In words: Spreading infection with HIV-1 NL43, Gag p24 ELISA in supernatants. Type of test: cell-based. The note with it: 4 dpi.
Description: FIGS. 5A, 5B, 5C, and 5D. Stable expression of HT1 inhibits HIV replication. FIG. 5A. Stable expression of HT1 inhibits HIV-1 replication in C-HT cells. 1E+06 HT1-expressing CEM-HT cells and e control CEM cells were challenged by HIV-1 NL43 infection. FIG. 5B. Stable expression of HT1 inhibits HIV-1 replication in MO-HT cells. 1E+06 HT1-expressing MOLT4-HT cells, and control MOLT4 cells were challenged by HIV-1 NL43 infection. FIG. 5C. Stable expression of HT1 inhibits HIV-1 replication in MT-HT cells. 1E+06 HT1-expressing MT4-HT cells, and control MT4 cells were challenged by HIV-1 NL43 infection. In each of FIGS. 5A, 5B, and 5C, virus production was assessed by Gag p24 ELISA in supernatants when cells were passaged at days 0, 2 and 4, and plotted. Error bars represent standard deviation from triplicate experiments. FIG. 5D: Stable expression of HT1 doesn't inhibit early steps of HIV-1 infection in C-HT, MO-HT, and MT-HT cells. Single-round infection assays were performed in the same conditions as in FIG. 5A-C above, but using replication-defective HXB2 Env-pseudotyped HIV-1 NL43ΔenvLuc. The relative amount of HIV DNA integrated in the cells' genomic DNA was assessed after 24 h by qPCR. Error bars represent standard deviation from triplicate experiments.
as §1
On the technique in general: In an ELISA, binding on a coated surface is turned into a signal by an enzyme label.

B1: HT1 (protein)
chain: KKKHRRRPSKKKRHWKPYYKLTWEEKKKFDEKQSLRASRIRAEMFAKGQPVAPYNTTQFLMDDHDQEEPDLVDMEPVDPYLEPWKHPGSQPRTACNNCYCKKCCFHCYACFTRKGLGISYG
modifications: left off: small tags and cut ends
B1: the “binding to endogenous 7SK snRNA” value with 7SK snRNA was “bound”. The “decrease in Luc expression” value in test [1] was found to be 3 fold. For the same molecule, the “early steps of HIV infection (proviral DNA by qPCR)” value in test [2] is “not affected”. For the same molecule, in test [3], the “decrease in Luc expression from the HIV promoter” value stood at 4 fold. For the same molecule, the entries for the “p24 concentration in supernatant” value in the test on HIV-1 NL43 (C-HT cells), in the test with HIV-1 NL43 (MO-HT cells) and in the test on HIV-1 NL43 (MT-HT cells) were 5.1, 12 ng/mL and 1.3 ng/mL, respectively.
